In US20230000974A1:

System: T1, fluorogenic substrate (R&D systems, cat no. ES007), peptide YVADAPK between Mca and Dnp groups
T1 sequence: YVADAPK

For “commercial ACE-2 from Sino Biological (cat no 10108H08H20)”, the “enzymatic activity assay using a fluorogenic substrate (fluorescence, excitation 320 nm, emission 405 nm)” value was “All four samples appeared to have similar levels of activity”.
